Assay results: paper PMC11387445, “L-Lactate dehydrogenase from Cyanidioschyzon merolae shows high catalytic efficiency for pyruvate reduction and is inhibited by ATP” (Plant Molecular Biology, 2024)

Experiments:
[1] = biological target: T1, CmLDH1 (Cyanidioschyzon merolae, UniProt M1V6D8); assay: NADH oxidation at […] nm, relative activity; type: biochemical; conditions: activation; 5 mM FBP, 0.20 mM pyruvate, 0.05 mM NADH, pH 7.0, 57 °C
T1 construct: gene CYME_CMA145C; full length, 354 residues; E. coli BL21(DE3)
T1 sequence (M1V6D8 1-354): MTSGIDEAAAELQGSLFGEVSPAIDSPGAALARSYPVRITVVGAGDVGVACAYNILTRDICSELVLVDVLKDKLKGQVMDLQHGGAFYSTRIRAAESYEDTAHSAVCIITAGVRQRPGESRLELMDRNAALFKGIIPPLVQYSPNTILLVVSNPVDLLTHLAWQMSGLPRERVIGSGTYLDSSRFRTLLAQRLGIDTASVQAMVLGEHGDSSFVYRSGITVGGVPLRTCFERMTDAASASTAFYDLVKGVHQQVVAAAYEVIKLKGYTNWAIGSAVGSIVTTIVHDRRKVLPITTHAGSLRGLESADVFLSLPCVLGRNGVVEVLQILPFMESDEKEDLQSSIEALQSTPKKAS

[2] = biological target: T1, CmLDH1; assay: NADH oxidation at […] nm, relative activity; type: biochemical; conditions: inhibition, 0.20 mM pyruvate, 0.05 mM NADH, pH 7.0, 57 °C
[3] = substrate: CC(=O)C(=O)O; assay: purified protein; type: biochemical, Cyanidioschyzon merolae; conditions: 0.15 mM NADH, pH 4.5 (optimum), 57 °C, no effector
[4] = substrate: NC(=O)C1=CN([C@@H]2O[C@H](COP(=O)(O)OP(=O)(O)OC[C@H]3O[C@@H](n4cnc5c(N)ncnc54)[C@H](O)[C@@H]3O)[C@@H](O)[C@H]2O)C=CC1; assay: purified protein; type: biochemical, Cyanidioschyzon merolae; conditions: 2 mM sodium pyruvate, pH 4.5 (optimum), 57 °C, no effector

Question: How did the “relative activity at 5 mM” value [1] turn out when `O=P(O)(O)OC[C@H]1OC(O)(COP(=O)(O)O)[C@@H](O)[C@@H]1O` (stereo partly drawn) [FBP] was run?
Answer: 1.2 fold

Question: How did the relative activity [2] turn out when `Nc1ncnc2c1ncn2[C@@H]1O[C@H](COP(=O)(O)OP(=O)(O)O)[C@@H](O)[C@H]1O` [ADP] was run?
Answer: ATP and ADP (particularly ATP) decreased CmLDH1 activity

Question: With `Nc1ncnc2c1ncn2[C@@H]1O[C@H](COP(=O)(O)OP(=O)(O)OP(=O)(O)O)[C@@H](O)[C@H]1O` [ATP] as the molecule, how does the relative activity ([2]; mixed inhibitor for NADH) read?
Answer: ATP and ADP (particularly ATP) decreased CmLDH1 activity

B1: CmLDH1 (Cyanidioschyzon merolae strain 10D) (protein)
chain: T1 sequence (M1V6D8 1-354)
notes: full length, 354 residues; E. coli BL21(DE3)
Question: What does the source list for B1?
Answer: K0.5 [3]: 0.13 ± 0.005 mM; kcat [3]: 314 ± 3 s⁻¹; kcat/Km [3]: 2.46e+06 ± 75000 M⁻¹ s⁻¹; K0.5 [4]: 0.011 ± 0.0006 mM; kcat [4]: 324 ± 6 s⁻¹; kcat/Km [4]: 2.95e+07 ± 1.05e+06 M⁻¹ s⁻¹
